Target: Neuropilin-2 (human NRP-2), endogenous on U87MG, Jurkat and HUVEC cells (human) (UniProt O60462)
Assay: cell-based or functional assay

Neuropilin-2 (human NRP-2), endogenous on U87MG, Jurkat and HUVEC cells (human), sequence (O60462 21-931 limits assumed): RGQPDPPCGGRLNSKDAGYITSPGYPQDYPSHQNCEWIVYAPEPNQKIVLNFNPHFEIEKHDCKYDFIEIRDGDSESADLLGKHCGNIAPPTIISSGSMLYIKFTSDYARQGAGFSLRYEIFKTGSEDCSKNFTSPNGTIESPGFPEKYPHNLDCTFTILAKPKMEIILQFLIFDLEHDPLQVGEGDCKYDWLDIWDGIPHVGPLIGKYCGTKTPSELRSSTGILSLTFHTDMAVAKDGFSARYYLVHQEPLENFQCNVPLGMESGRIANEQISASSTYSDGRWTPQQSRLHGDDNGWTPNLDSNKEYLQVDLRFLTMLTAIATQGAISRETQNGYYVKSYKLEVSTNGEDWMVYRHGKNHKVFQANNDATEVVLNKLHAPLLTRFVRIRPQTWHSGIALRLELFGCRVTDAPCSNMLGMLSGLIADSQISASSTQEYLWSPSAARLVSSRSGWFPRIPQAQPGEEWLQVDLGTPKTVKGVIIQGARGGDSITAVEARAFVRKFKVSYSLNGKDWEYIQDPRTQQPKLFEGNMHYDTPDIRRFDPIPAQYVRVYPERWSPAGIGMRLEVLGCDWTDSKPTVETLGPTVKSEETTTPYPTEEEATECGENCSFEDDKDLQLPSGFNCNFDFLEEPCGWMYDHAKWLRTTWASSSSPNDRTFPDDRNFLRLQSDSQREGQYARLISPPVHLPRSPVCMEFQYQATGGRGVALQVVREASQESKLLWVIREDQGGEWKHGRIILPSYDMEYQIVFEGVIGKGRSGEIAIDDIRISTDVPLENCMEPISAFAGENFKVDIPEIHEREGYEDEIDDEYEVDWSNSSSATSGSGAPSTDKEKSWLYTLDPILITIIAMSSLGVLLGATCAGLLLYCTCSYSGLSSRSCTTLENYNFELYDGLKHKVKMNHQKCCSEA

“Human recombinant SEMA3F (full-length, His-Myc-tagged human SEMA3F, secreted by 293T cells and purified) (from UniProt Q13275 20-785) (ligand)” showed an inhibition of DFO-induced VEGF promoter luciferase activity, U87MG cells of 43%, an inhibition of stress fiber formation (phalloidin staining), pcDNA3.1 control vector transfected U87MG cells of 90% and a reduction of hypoxia (1% O2)-induced VEGF promoter luciferase activity, U87MG cells of 44%. For the same substance, the suppression of RhoA activity (rhotekin pulldown), control pcDNA3.1-transfected U87MG cells was 88%.

From patent publication US20250381244A1
